Assay results from patent publication US20230406950A1 (LYVGEN BIOPHARMA, published 2023).

B1: Ly253-G2 (antibody, human IgG2, kappa, V domains shown)
VH: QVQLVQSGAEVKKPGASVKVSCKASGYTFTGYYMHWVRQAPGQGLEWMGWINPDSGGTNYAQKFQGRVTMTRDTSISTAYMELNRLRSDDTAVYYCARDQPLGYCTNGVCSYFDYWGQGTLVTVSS
VL: DIQMTQSPSSVSASVGDRVTITCRASQGIYSWLAWYQQKPGKAPNLLIYTASTLQSGVPSRFSGSGSGTDFTLTISSLQPEDFATYYCQQANIFPLTFGGGTKVEIKR
notes: also called anti-CD40 antibody
B2: Ly510 (bispecific antibody, human IgG2, kappa)
heavy: QVTLKESGPALVKPTQTLTLTCTFSGFSLSTSGTCVSWIRQPPGKALEWLATICWEDSKGYNPSLKSRLTISKDTSKNQAVLTMTNMDPVDTATYYCARREDSGYFWFPYWGQGTLVTVSSASTKGPSVFPLAPCSRSTSESTAALGCLVKDYFPEPVTVSWNSGALTSGVHTFPAVLQSSGLYSLSSVVTVPSSNFGTQTYTCNVDHKPSNTKVDKTVERKCCVECPPCPAPPVAPSVFLFPPKPKDTLMISRTPEVTCVVVDVSHEDPEVQFNWYVDGVEVHNAKTKPREEQFNSTFRVVSVLTVVHQDWLNGKEYKCKVSNKGLPAPIEKTISKTKGQPREPQVYTLPPSREEMTKNQVSLTCLVKGFYPSDIAVEWESNGQPENNYKTTPPMLDSDGSFFLYSKLTVDKSRWQQGNVFSCSVMHEALHNHYTQKSLSLSPGGGGGSGGGGSGGGGSGGGGSDIQMTQSPSSLSASVGDRVTITCRASQDIRSNLNWYQQKPGGAVKLLIYYTSRLHSGVPSRFSGSGSGTDYTLTISSLQPEDFATYFCQQSEKLPRTFGGGTKVEIRGGGGSGGGGSGGGGSGGGGSQVQLVQSGAEVKKPGASVKVSCKASGYTFAGFEMHWVRQAPGQGLEWMGAIDPKTGGTDYNQKFKDRVTMTRDTSISTAYMELSRLRSDDTAVYYCARDLGYFDVWGQGTLVTVSS
light: NIQMTQSPSSLSASVGDRVTITCKAGQNVNNYLAWYQQKPGKAPKVLIFNANSLQTGVPSRFSGSGSGTDFTLTISSLQPEDFATYYCQQYNSWPTFGGGTKVEIKRTVAAPSVFIFPPSDEQLKSGTASVVCLLNNFYPREAKVQWKVDNALQSGNSQESVTEQDSKDSTYSLSSTLTLSKADYEKHKVYACEVTHQGLSSPVTKSFNRGEC
notes: Anti-PD-1/CD137: Ly516 heavy chain (other constant region than Ly456) fused to Ly1630 scFv (VL-VH); Ly516 light chain
B3: Ly514 (bispecific antibody, human IgG2, kappa)
heavy: QVTLKESGPALVKPTQTLTLTCTFSGFSLSTSGTCVSWIRQPPGKALEWLATICWEDSKGYNPSLKSRLTISKDTSKNQAVLTMTNMDPVDTATYYCARREDSGYFWFPYWGQGTLVTVSSASTKGPSVFPLAPCSRSTSESTAALGCLVKDYFPEPVTVSWNSGALTSGVHTFPAVLQSSGLYSLSSVVTVPSSNFGTQTYTCNVDHKPSNTKVDKTVERKCCVECPPCPAPPVAPSVFLFPPKPKDTLMISRTPEVTCVVVDVSHEDPEVQFNWYVDGVEVHNAKTKPREEQFNSTFRVVSVLTVVHQDWLNGKEYKCKVSNKGLPAPIEKTISKTKGQPREPQVYTLPPSREEMTKNQVSLTCLVKGFYPSDIAVEWESNGQPENNYKTTPPMLDSDGSFFLYSKLTVDKSRWQQGNVFSCSVMHEALHNHYTQKSLSLSPGGGGGSGGGGSGGGGSGGGGSDIQMTQSPSSLSASVGDRVTITCRASQDIRSNLNWYQQKPGGAVKLLIYYTSRLHSGVPSRFSGSGSGTDYTLTISSLQPEDFATYFCQQSEKLPRTFGGGTKVEIRRTVAAPSVFIFPPSDEQLKSGTASVVCLLNNFYPREAKVQWKVDNALQSGNSQESVTEQDSKDSTYSLSSTLTLSKADYEKHKVYACEVTHQGLSSPVTKSFNRGEC
light: NIQMTQSPSSLSASVGDRVTITCKAGQNVNNYLAWYQQKPGKAPKVLIFNANSLQTGVPSRFSGSGSGTDFTLTISSLQPEDFATYYCQQYNSWPTFGGGTKVEIKRTVAAPSVFIFPPSDEQLKSGTASVVCLLNNFYPREAKVQWKVDNALQSGNSQESVTEQDSKDSTYSLSSTLTLSKADYEKHKVYACEVTHQGLSSPVTKSFNRGEC
chain: QVQLVQSGAEVKKPGASVKVSCKASGYTFAGFEMHWVRQAPGQGLEWMGAIDPKTGGTDYNQKFKDRVTMTRDTSISTAYMELSRLRSDDTAVYYCARDLGYFDVWGQGTLVTVSSASTKGPSVFPLAPSSKSTSGGTAALGCLVKDYFPEPVTVSWNSGALTSGVHTFPAVLQSSGLYSLSSVVTVPSSSLGTQTYICNVNHKPSNTKVDKKVEPKSCDK
notes: Three-chain format: Ly516 heavy chain fused to Ly1630 light chain; Ly516 light chain; Ly1630 VH-CH1
B4: Ly456 (bispecific antibody, human IgG1, kappa)
heavy: QVTLKESGPALVKPTQTLTLTCTFSGFSLSTSGTCVSWIRQPPGKALEWLATICWEDSKGYNPSLKSRLTISKDTSKNQAVLTMTNMDPVDTATYYCARREDSGYFWFPYWGQGTLVTVSSASTKGPSVFPLAPSSKSTSGGTAALGCLVKDYFPEPVTVSWNSGALTSGVHTFPAVLQSSGLYSLSSVVTVPSSSLGTQTYICNVNHKPSNTKVDKKVEPKSCDKTHTCPPCPAPELLGPSVFLFPPKPKDTLMISRTPEVTCVVVDVSHEDPEVKFNWYVDGVEVHNAKTKPREEQYNSTYRVVSVLTVLHQDWLNGKEYKCKVSNKALPAPIEKTISKAKGQPREPQVYTLPPSREEMTKNQVSLTCLVKGFYPSDIAVEWESNGQPENNYKTTPPVLDSDGSFFLYSKLTVDKSRWQQGNVFSCSVMHEALHNHYTQKSLSLSPGGGGGSGGGGSGGGGSGGGGSDIQMTQSPSSLSASVGDRVTITCRASQDIRSNLNWYQQKPGGAVKLLIYYTSRLHSGVPSRFSGSGSGTDYTLTISSLQPEDFATYFCQQSEKLPRTFGGGTKVEIRGGGGSGGGGSGGGGSGGGGSQVQLVQSGAEVKKPGASVKVSCKASGYTFAGFEMHWVRQAPGQGLEWMGAIDPKTGGTDYNQKFKDRVTMTRDTSISTAYMELSRLRSDDTAVYYCARDLGYFDVWGQGTLVTVSS
light: NIQMTQSPSSLSASVGDRVTITCKAGQNVNNYLAWYQQKPGKAPKVLIFNANSLQTGVPSRFSGSGSGTDFTLTISSLQPEDFATYYCQQYNSWPTFGGGTKVEIKRTVAAPSVFIFPPSDEQLKSGTASVVCLLNNFYPREAKVQWKVDNALQSGNSQESVTEQDSKDSTYSLSSTLTLSKADYEKHKVYACEVTHQGLSSPVTKSFNRGEC
notes: Anti-PD-1/CD137: Ly516 heavy chain fused at C-terminus to Ly1630 scFv (VL-VH); Ly516 light chain
B5: Ly512 (bispecific antibody, human IgG2, kappa)
heavy: QVTLKESGPALVKPTQTLTLTCTFSGFSLSTSGTCVSWIRQPPGKALEWLATICWEDSKGYNPSLKSRLTISKDTSKNQAVLTMTNMDPVDTATYYCARREDSGYFWFPYWGQGTLVTVSSASTKGPSVFPLAPCSRSTSESTAALGCLVKDYFPEPVTVSWNSGALTSGVHTFPAVLQSSGLYSLSSVVTVPSSNFGTQTYTCNVDHKPSNTKVDKTVERKCCVECPPCPAPPVAPSVFLFPPKPKDTLMISRTPEVTCVVVDVSHEDPEVQFNWYVDGVEVHNAKTKPREEQFNSTFRVVSVLTVVHQDWLNGKEYKCKVSNKGLPAPIEKTISKTKGQPREPQVYTLPPSREEMTKNQVSLTCLVKGFYPSDIAVEWESNGQPENNYKTTPPMLDSDGSFFLYSKLTVDKSRWQQGNVFSCSVMHEALHNHYTQKSLSLSPGK
light: NIQMTQSPSSLSASVGDRVTITCKAGQNVNNYLAWYQQKPGKAPKVLIFNANSLQTGVPSRFSGSGSGTDFTLTISSLQPEDFATYYCQQYNSWPTFGGGTKVEIKRTVAAPSVFIFPPSDEQLKSGTASVVCLLNNFYPREAKVQWKVDNALQSGNSQESVTEQDSKDSTYSLSSTLTLSKADYEKHKVYACEVTHQGLSSPVTKSFNRGECGGGGSGGGGSGGGGSGGGGSDIQMTQSPSSLSASVGDRVTITCRASQDIRSNLNWYQQKPGGAVKLLIYYTSRLHSGVPSRFSGSGSGTDYTLTISSLQPEDFATYFCQQSEKLPRTFGGGTKVEIRGGGGSGGGGSGGGGSGGGGSQVQLVQSGAEVKKPGASVKVSCKASGYTFAGFEMHWVRQAPGQGLEWMGAIDPKTGGTDYNQKFKDRVTMTRDTSISTAYMELSRLRSDDTAVYYCARDLGYFDVWGQGTLVTVSS
notes: Anti-PD-1/CD137: Ly516 heavy chain; Ly516 light chain fused to Ly1630 scFv (VL-VH)

Assays:
[1] = molecular target: T1, human CD40 expressed on CHO cells (human, UniProt P25942 21-277); test: FACS on CHO cells expressing human CD40 (MFI)
T1 construct: whole, on cells
T1 sequence (P25942 21-277): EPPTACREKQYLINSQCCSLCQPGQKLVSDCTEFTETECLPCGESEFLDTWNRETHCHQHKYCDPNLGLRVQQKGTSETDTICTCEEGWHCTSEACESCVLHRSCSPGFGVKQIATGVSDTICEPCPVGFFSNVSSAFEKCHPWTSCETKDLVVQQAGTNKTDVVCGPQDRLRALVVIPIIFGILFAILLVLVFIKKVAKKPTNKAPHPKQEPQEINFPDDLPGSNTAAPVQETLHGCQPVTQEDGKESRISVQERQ
Protocol: (§1) Anti-CD40/CD137 bi-specific antibodies were analyzed by FACS for their binding properties to human CD40 and/or human CD137 expressed on CHO cells. Briefly, cultured cells were harvested, counted and cell viability was evaluated using the Trypan Blue exclusion method. Viable cells were then adjusted to 2×10⁶ cells per mL in PBS containing 2% BSA. 100 μL of this cell suspension were further aliquoted per well into a V-bottom 96-well plate. […] After incubation for 2 hours at 4° C., cells were centrifuged (3 min, 1000×g), washed with 250 μL/well BSA-containing FACS Stain Buffer, resuspended and incubated for an additional 1 hour at 4° C. with 100 μL/well fluorochrome-conjugated anti-IgG antibody for detection of the bisepecific antibody. Cells were then washed with 250 μL/well BSA-containing FACS Stain Buffer, resuspended in 100 μL/well FACS Stain Buffer, acquired and analyzed using a FACS machine. Binding of the bispecific antibodies to human CD40 or human CD137 expressing CHO cells were evaluated and the mean fluorescence intensity is plotted in histograms or dot plots.

[2] = molecular target: T2, human PD-1 expressed on cells (human, UniProt Q15116 25-288); test: flow cytometry (FACS), MFI, CHO cells expressing human PD-1
T2 construct: whole, on cells; also called human PD-1 over-expressed on the CHO cells; Jurkat/NFkB-Luci/PD-1 cells
T2 sequence (Q15116 25-288): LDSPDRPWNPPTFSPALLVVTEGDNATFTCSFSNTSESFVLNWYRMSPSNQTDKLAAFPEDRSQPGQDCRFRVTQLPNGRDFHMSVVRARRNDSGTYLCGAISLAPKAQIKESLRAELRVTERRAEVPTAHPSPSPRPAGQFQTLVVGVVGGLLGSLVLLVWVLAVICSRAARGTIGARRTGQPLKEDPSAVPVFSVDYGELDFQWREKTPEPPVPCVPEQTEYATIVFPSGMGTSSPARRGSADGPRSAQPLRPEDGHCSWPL
Protocol: as §1, with “Exemplary anti-PD-1/CD137” for “Anti-CD40/CD137”, “PD-1” for “CD40”, “1000× g),” for “1000×g),”

[3] = molecular target: T3, human CD137 ECD protein (His tag) (human, UniProt Q07011 24-186); test: bridging ELISA: human CD137 ECD (His tag) coated, antibody titrated, then human PD-1 ECD (mouse IgG2a Fc tag), HRP anti-mouse IgG2a Fc; A450-A620
T3 construct: extracellular domain; also called recombinant human CD137; not shown: His tag
Protocol: Exemplary anti-PD-1/CD137 bi-specific antibodies were analyzed by ELISA for their simultaneous binding to recombinant human PD-1 and human CD137. Briefly, human CD137 ECD protein (His tag) was diluted and coated onto an ELISA plate with a volume of 100 μL/well by incubation at 4° C. overnight. The next day, the plate was blocked with PBST-BSA buffer, then serially diluted samples of anti-PD-1/CD137 bi-specific antibodies were pipetted into appropriate wells at 50 μL/well, and the plate was incubated for 1 hour followed by washing. The extracellular domain (ECD) of human PD-1 protein (mouse IgG2a Fc tag) was added into the plate at 50 μL/well. After 1-hour incubation at room temperature, HRP-conjugated anti-Mouse IgG, Fc G2a specific antibody was added into the plate at 100 μL/well. The plate was incubated for 1 hour at room temperature followed by washing. TMB substrate solution was added at 100 μL/well and the color development was stopped by adding 100 uL/well Stop Solution (2N H₂SO₄). Absorbance at 450 nm and 620 nm was read by Tecan F200 Pro plate reader. GraphPad 7.0, “[Agonist] vs. response—Variable slope (four parameters)” was used to plot the binding data and calculate binding EC50 values.

[4] = molecular target: T4, human CD137 expressed on cells (human, UniProt Q07011 24-255); test: flow cytometry (FACS), MFI, CHO cells expressing human CD137
T4 construct: whole, on cells; also called 4-1BB; TNFRSF9
T4 sequence (Q07011 24-255): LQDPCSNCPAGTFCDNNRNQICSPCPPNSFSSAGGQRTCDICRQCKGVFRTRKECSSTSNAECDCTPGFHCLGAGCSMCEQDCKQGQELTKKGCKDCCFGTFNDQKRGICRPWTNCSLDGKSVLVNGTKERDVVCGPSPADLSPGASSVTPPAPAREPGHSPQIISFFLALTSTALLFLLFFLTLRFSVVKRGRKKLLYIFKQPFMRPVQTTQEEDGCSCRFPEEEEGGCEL
Protocol: as §1, with “Exemplary anti-PD-1/CD137” for “Anti-CD40/CD137”, “PD-1” for “CD40”, “1000× g),” for “1000×g),”

Row | Binder | EC50 (read off the curve) [1] [µg/mL] | EC50 (read off the curve) [2] [µg/mL] | EC50 (read off the curve) [3] [µg/mL] | EC50 (read off the curve) [4] [µg/mL]
1 | B1 | ~0.09 | – | – | –
2 | B2 | – | ~0.2 | ~0.02 | –
3 | B3 | – | ~0.2 | – | ~0.5
4 | B4 | – | ~0.2 | ~0.02 | –
5 | B5 | – | ~0.1 | ~0.02 | –
